Data reported in patent publication US20030200555.

Molecular target: T1, coumarin-CO-REVNFEVEFR
T1 chain: REVNFEVEFR

B1: BACE 1, soluble (transmembrane domain and cytoplasmic extension excluded) human protein produced in a baculovirus expression system (protein)
chain: TQHGIRLPLRSGLGGAPLGLRLPRETDEEPEEPGRRGSFVEMVDNLRGKSGQGYYVEMTVGSPPQTLNILVDTGSSNFAVGAAPHPFLHRYYQRQLSSTYRDLRKGVYVPYTQGKWEGELGTDLVSIPHGPNVTVRANIAAITESDKFFINGSNWEGILGLAYAEIARPDDSLEPFFDSLVKQTHVPNLFSLQLCGAGFPLNQSEVLASVGGSMIIGGIDHSLYTGSLWYTPIRREWYYEVIIVRVEINGQDLKMDCKEYNYDKSIVDSGTTNLRLPKKVFEAAVKSIKAASSTEKFPDGFWLGEQLVCWQAGTTPWNIFPVISLYLMGEVTNQSFRITILPQQYLRPVEDVATSQDDCYKFAISQSSTGTVMGAVIMEGFYVVFDRARKRIGFAVSACHVHDEFRTAAVEGPFVTLDMEDCGYNIPQTDESTLMT
  Km: The Km of the substrate is greater than 100 µM and cannot be determined due to the limit of solubility of the substrate
